According to PMC11897055:

Details: other: succinylation at K130

Row | Substance | degradation_or_half_life | enzymatic_activity | localisation_or_trafficking
1 | superoxide dismutase 2 (SOD2): CPT1A knockdown | no change | decreases | decreases
2 | superoxide dismutase 2 (SOD2): K130R | – | decreases | decreases
3 | superoxide dismutase 2 (SOD2): ST1326 (CPT1A inhibitor, 10 μM, 48 h) | – | decreases | –
